Data on two molecules can be found in US20030220482A1 (published 2003).

The target in assay [1] is T1, CXCR4 chemokine receptor (human, UniProt P61073 1-352).
T1 construct: whole, on cells
Briefly: control in ^125I-SDF-1α competitive binding on CEM-T4 cells (FIG. 1).

Assay [2] addresses T1, CXCR4 chemokine receptor. Briefly: ^125I-SDF-1α competitive binding on CEM-T4 cells.
Description: CEM-T4 cells were harvested and washed twice with PBS. […] The incubation was terminated by separating the cells from the binding buffer by centrifugation and washing once with 500 μl of cold binding buffer. Bound ligands were quantitated by counting γ emissions.
The next assay has as its target T2, CCR5 chemokine receptor (UniProt P51681 1-352, limits assumed).
T2 construct: whole, on cells
In words: competitive binding with radiolabeled MIP-1β on CCR5-transfected 293 cells.

T1 sequence (P61073 whole entry): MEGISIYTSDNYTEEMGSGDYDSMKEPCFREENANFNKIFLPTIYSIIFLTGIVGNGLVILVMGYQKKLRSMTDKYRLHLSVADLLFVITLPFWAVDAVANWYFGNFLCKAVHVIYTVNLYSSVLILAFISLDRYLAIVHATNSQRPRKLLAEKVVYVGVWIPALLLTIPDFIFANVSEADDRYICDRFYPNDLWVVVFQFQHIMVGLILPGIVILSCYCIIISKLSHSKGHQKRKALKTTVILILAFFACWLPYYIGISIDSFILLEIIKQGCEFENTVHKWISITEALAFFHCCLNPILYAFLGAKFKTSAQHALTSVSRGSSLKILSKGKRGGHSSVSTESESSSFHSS
T2 sequence (P51681 whole entry): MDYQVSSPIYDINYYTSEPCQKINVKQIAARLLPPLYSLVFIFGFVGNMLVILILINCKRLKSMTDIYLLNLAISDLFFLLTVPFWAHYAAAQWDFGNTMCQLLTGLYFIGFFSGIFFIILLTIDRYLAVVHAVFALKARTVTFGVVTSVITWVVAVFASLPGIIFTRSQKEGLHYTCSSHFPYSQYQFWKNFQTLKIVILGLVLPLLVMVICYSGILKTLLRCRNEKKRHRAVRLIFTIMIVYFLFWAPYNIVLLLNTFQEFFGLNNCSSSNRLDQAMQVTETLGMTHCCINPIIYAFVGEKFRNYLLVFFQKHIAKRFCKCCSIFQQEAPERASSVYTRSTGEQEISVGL

B1: viral Macrophage Inflammatory Protein-II (vMIP-II) (ligand)
chain: LGASWHRPDKCCLGYQKRPLPQVLLSSWYPTSQLCSKPGVIFLTKRGRQVCADKSKDWVKKLMQQLPVTAR
notes: also called native vMIP-II
On to B1, for which the binding result with CXCR4 chemokine receptor [1] is on record as “binds”.

For the molecule LGASWHRPDK [V3 peptide (vMIP-II, 1-10)], the binding result in the assay with CXCR4 chemokine receptor [2] is “binds”; with CCR5 chemokine receptor it was “no binding”.
